Experimental data published in PMC8599813, “Investigating molecular mechanisms of 2A-stimulated ribosomal pausing and frameshifting in Theilovirus”.

Tests used:
[1] = molecular target: Theiler's murine encephalomyelitis virus (TMEV) 2A protein (Theiler's murine encephalomyelitis virus (TMEV)); assay: SEC-MALS; Superdex 75 increase 10/300 GL, 20 mM Tris (HCl) pH 7.5, 1.0 M NaCl, 25°C; 100 µl injected at 3.1, 0.8 and 0.38 mg/ml (200, 51.5 and 24.5 µM); Figure 1B at 3.1 mg/ml; monomer and trimer peaks
TMEV 2A [2] = molecular target: T1, TMEV 2A (Theiler's murine encephalomyelitis …, UniProt P08545 923-1055); assay: EMSA; EMSA: 10 mM Tris pH 7.4, ~140 mM NaCl, 2 mM Mg acetate, 1 mM DTT, 5% glycerol, tRNA, 50 nM RNA, 37 C 20 min; MST: buffer stated as 1x of 20 mM Tris pH 7.4/80 mM NaCl/4 mM Mg acetate/2 mM DTT (2x), ~140 mM NaCl final, 5 nM RNA, 25 C; ITC: 50 mM Tris pH 7.4, 400 mM NaCl, 25 C; conditions: protein: recombinant, tags: GST cleaved (3C protease), N-terminal GPLGS remnant, label: 5' Cy5
T1 sequence: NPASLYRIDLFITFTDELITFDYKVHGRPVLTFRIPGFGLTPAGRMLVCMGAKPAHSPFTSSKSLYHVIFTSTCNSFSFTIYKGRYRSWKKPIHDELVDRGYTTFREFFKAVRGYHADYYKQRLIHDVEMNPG

TMEV 2A [3] = molecular target: T1, TMEV 2A; assay: EMSA; ~140 mM NaCl, tRNA; EMSA: 10 mM Tris pH 7.4, ~140 mM NaCl, 2 mM Mg acetate, 1 mM DTT, 5% glycerol, tRNA, 50 nM RNA, 37 C 20 min; MST: buffer stated as 1x of 20 mM Tris pH 7.4/80 mM NaCl/4 mM Mg acetate/2 mM DTT (2x), ~140 mM NaCl final, 5 nM RNA, 25 C; ITC: 50 mM Tris pH 7.4, 400 mM NaCl, 25 C; conditions: protein: recombinant; tags: GST cleaved (3C protease); N-terminal GPLGS remnant; label: 5' Cy5 (EMSA, MST); hairpin, 7 bp stem
TMEV 2A [4] = molecular target: T1, TMEV 2A; assay: MST; ~140 mM NaCl; EMSA: 10 mM Tris pH 7.4, ~140 mM NaCl, 2 mM Mg acetate, 1 mM DTT, 5% glycerol, tRNA, 50 nM RNA, 37 C 20 min; MST: buffer stated as 1x of 20 mM Tris pH 7.4/80 mM NaCl/4 mM Mg acetate/2 mM DTT (2x), ~140 mM NaCl final, 5 nM RNA, 25 C; ITC: 50 mM Tris pH 7.4, 400 mM NaCl, 25 C; conditions: protein: recombinant, tags: GST cleaved (3C protease), N-terminal GPLGS remnant, label: 5' Cy5 (EMSA, MST); for Kd: stem-loop/pseudoknot-like
TMEV 2A [5] = molecular target: T1, TMEV 2A; assay: ITC; 400 mM NaCl; ~1:1 stoichiometry; EMSA: 10 mM Tris pH 7.4, ~140 mM NaCl, 2 mM Mg acetate, 1 mM DTT, 5% glycerol, tRNA, 50 nM RNA, 37 C 20 min; MST: buffer stated as 1x of 20 mM Tris pH 7.4/80 mM NaCl/4 mM Mg acetate/2 mM DTT (2x), ~140 mM NaCl final, 5 nM RNA, 25 C; ITC: 50 mM Tris pH 7.4, 400 mM NaCl, 25 C; conditions: protein: recombinant; tags: GST cleaved (3C protease); N-terminal GPLGS remnant; label: 5' Cy5 (EMSA, MST); none (ITC, SEC-MALS); stem-loop/pseudoknot-like

Theiler's murine encephalomyelitis virus (TMEV) 2A protein (natural protein)
stoichiometry N [1]: 3

ACAAGGUGCGGUGCUAACUAAAUCCCUAGCACCCC (structured_RNA) [TMEV 8]
binding result (TMEV 2A [2]; stem-loop/pseudoknot-like): binds

GCGGUGCUAACUAAAUCCCUAGCACCCC (structured_RNA) [TMEV 4]
binding result (TMEV 2A [3]): no binding

GCGGUGCUAACUAAAUCCCUAGCACCCCAGGCAGGAA (structured_RNA) [TMEV 2]
binding result (TMEV 2A [4]; hairpin): no binding

GGGUUUUUCAGCCACAAGGUGCGGUGCUAACUAAAUCCCUAGCACCCC (structured_RNA) [TMEV 3]
Kd (TMEV 2A [4]): 495 ± 110 nM

CCACAAGGUGCGGUGCUAACUAAAUCCCUAGCACCCCAGGCAGGAA (structured_RNA) [TMEV 1]
Kd (TMEV 2A [4]): 484 ± 90 nM

CCACAACGUGCGGUGCUAACUAAAUCCGUAGCACCCCAGGCAGGAA (structured_RNA) [TMEV 1 G17C+C38G]
binding result (TMEV 2A [2]; compensatory pair 17-38): no binding

CACAAGGUGCGGUGCUAACUAAAUCCCUAGCACCCC (structured_RNA) [TMEV 7]
binding result (TMEV 2A [2]; stem-loop/pseudoknot-like): binds

GGUGCGGUGCUAACUAAAUCCCUAGCACCCC (structured_RNA) [TMEV 12]
binding result (TMEV 2A [2]; stem-loop): no binding

CAAGGUGCGGUGCUAACUAAAUCCCUAGCACCCC (structured_RNA) [TMEV 9]
binding result (TMEV 2A [2]; pseudoknot-like, G17-C38 pair): binds

CAACGUGCGGUGCUAACUAAAUCCGUAGCACCCC (structured_RNA) [TMEV 9 G17C+C38G]
binding result (TMEV 2A [2]; compensatory pair 17-38): no binding

CAACGUGCGGUGCUAACUAAAUCCCUAGCACCCC (structured_RNA) [TMEV 9 G17C]
binding result (TMEV 2A [2]; stem-loop): no binding

CCACAAGGUGCGGUGCUAACUAAAUCCCUAGCACCCC (structured_RNA) [TMEV 6]
Kd (TMEV 2A [5]): 67 ± 7 nM
Kd (TMEV 2A [4]; none (ITC, SEC-MALS)): 280 ± 40 nM
